target: clathrin purified from bovine brain, P49951; assay: peptide array overlay assay; details: chain shown with the change, n = 1, parent: est. 0.15, read off a plot
Sequence (P49951 2-1675, chain 1 of 3): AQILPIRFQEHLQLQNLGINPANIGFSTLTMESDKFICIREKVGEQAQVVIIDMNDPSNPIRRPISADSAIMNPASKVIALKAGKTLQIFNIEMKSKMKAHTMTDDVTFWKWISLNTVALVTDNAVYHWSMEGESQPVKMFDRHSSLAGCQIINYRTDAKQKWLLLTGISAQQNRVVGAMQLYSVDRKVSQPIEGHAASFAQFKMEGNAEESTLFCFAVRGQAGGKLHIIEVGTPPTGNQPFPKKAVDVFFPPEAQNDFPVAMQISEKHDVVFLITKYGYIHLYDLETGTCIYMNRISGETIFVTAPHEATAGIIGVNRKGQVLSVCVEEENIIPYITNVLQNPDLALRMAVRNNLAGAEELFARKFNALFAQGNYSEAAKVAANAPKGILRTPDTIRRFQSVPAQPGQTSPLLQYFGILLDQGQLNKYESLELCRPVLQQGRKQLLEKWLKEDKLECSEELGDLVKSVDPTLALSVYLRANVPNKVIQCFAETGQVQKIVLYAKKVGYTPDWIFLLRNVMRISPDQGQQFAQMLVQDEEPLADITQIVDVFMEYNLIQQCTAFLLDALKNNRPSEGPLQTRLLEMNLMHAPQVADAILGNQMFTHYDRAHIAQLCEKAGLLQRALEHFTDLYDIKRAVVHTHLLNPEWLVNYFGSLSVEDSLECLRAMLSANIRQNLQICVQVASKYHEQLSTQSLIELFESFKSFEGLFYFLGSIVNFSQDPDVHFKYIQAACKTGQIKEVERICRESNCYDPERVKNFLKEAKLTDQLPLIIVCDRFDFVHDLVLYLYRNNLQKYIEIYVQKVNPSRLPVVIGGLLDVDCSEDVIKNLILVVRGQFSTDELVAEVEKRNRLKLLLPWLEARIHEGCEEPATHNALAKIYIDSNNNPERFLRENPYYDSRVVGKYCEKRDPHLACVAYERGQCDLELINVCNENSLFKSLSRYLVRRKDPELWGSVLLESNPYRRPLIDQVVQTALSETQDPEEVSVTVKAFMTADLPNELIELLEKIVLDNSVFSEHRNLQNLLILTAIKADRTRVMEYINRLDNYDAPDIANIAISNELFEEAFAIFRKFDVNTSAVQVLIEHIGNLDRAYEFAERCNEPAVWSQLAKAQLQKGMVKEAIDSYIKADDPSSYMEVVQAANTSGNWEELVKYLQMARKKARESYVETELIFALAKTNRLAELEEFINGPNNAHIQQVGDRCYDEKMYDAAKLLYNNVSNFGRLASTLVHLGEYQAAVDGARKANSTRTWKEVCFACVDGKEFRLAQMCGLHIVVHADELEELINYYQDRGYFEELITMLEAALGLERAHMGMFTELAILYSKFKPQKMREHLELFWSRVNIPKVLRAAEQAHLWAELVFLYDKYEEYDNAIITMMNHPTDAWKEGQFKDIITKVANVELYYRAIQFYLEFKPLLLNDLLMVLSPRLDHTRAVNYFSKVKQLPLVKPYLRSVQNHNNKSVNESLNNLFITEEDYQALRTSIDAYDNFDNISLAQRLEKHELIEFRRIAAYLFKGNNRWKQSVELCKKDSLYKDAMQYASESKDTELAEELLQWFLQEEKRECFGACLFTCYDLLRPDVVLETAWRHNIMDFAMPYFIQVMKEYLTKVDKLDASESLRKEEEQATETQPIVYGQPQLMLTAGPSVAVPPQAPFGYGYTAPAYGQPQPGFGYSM
Sequence (chain, as listed by the source, chain 2 of 3): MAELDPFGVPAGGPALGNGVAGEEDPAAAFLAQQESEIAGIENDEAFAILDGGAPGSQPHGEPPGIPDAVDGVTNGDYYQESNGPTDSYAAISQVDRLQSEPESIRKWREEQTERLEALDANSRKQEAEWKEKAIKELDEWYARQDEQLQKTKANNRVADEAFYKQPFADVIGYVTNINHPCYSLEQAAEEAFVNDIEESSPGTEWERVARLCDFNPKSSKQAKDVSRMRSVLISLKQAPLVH
Sequence (chain, as listed by the source, chain 3 of 3): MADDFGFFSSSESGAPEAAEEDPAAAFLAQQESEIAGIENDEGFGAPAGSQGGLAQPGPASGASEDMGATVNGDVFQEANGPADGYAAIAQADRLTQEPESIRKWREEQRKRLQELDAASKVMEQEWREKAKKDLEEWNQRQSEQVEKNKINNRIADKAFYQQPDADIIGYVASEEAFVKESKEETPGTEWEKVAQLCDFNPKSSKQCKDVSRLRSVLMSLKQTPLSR

In order of rising other: relative clathrin binding (intensity divided by that of 15mer E):
1. SDDADSSAANAVGNA [CALM iso3 487-…-501 L490A; L494A; L497A; L501A]  0
2. SAAAASSAANAVGNA [CALM iso3 487-…-501 D488A; D489A; L490A; D491A; L494A; L497A; L501A]  0
3. SAALASSLANLVGNL [CALM iso3 487-…-501 D488A; D489A; D491A]  0.35

same assay, conditions: chain shown with the change, n = 1, parent: est. 1.0, read off a plot

In order of falling ratio to parent:
1. LASSLANLVGNLGIG [CALM iso3 490-…-504 D491A]  1
2. PAKAPLAALNIKAFL [AP180 Site 2 peptide 882-…-896 D885A; D889A; D894A]  0.12
3. PAKDPAADANAKDAA [AP180 Site 2 peptide 882-…-896 L887A; L890A; I892A; F895A; L896A]  0
4. ADSSAANAVGNAGAG [CALM iso3 490-…-504 L490A; L494A; L497A; L501A; I503A]  0
5. AASSAANAVGNAGAG [CALM iso3 490-…-504 L490A; D491A; L494A; L497A; L501A; I503A]  0
6. PNPFGPVSGAQAQAA [CALM iso3 C-terminus peptide 596-…-610 I607A; F609A; M610A]  0
7. PAKAPAAAANAKAAA [AP180 Site 2 peptide 882-…-896 D885A; L887A; D889A; L890A; I892A; D894A; F895A; L896A]  0

Reference: article PMC5004861
